The supplement of paper PMC9112550, “Optimization of the antimicrobial peptide Bac7 by deep mutational scanning” (BMC Biology, 2022)

system: Escherichia coli TOP10; assay: shrunken log2 fold change of peptide-encoding DNA abundance (4.5 h post-induction vs induction); higher = less antimicrobial activity (less host growth inhibition); details: time post-induction: 4.5 h; library: site-saturation at positions 5, 18, 19, 20
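Further: peptides expressed intracellularly from a pBAD plasmid library in pooled LB shake-flask culture, induced with 0.3% L-arabinose, DNA abundance read by NGS, three biological replicates, DESeq2 with apeglm shrinkage.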

In order of falling “shrunken log2 fold change” value:
1. RRIRGRPPRLPRPRPRPECIPRP  1.67
2. RRIRKRPPRLPRPRPRPTPRPRP  1.05
3. RRIRMRPPRLPRPRPRPAWDPRP  0.869
4. RRIRMRPPRLPRPRPRPTPEPRP  0.713
5. RRIRARPPRLPRPRPRPNGHPRP  0.53
6. RRIRKRPPRLPRPRPRPRSNPRP  0.515
7. RRIRARPPRLPRPRPRPTALPRP  0.513
8. RRIRKRPPRLPRPRPRPAHGPRP  0.502
9. RRIRRRPPRLPRPRPRPHATPRP  0.492
10. RRIRARPPRLPRPRPRPKAHPRP  0.491
11. RRIRNRPPRLPRPRPRPACWPRP  0.449
12. RRIRRRPPRLPRPRPRPKWCPRP  0.431
13. RRIRQRPPRLPRPRPRPTHQPRP  0.403
14. RRIRWRPPRLPRPRPRPSNDPRP  0.391
15. RRIRLRPPRLPRPRPRPPELPRP  0.389
16. RRIRPRPPRLPRPRPRPDAFPRP  0.342
17. RRIRVRPPRLPRPRPRPTWLPRP  0.318
18. RRIRKRPPRLPRPRPRPNWGPRP  0.308
19. RRIRERPPRLPRPRPRPVPDPRP  0.268
20. RRIRCRPPRLPRPRPRPESEPRP  0.237
21. RRIRTRPPRLPRPRPRPRTRPRP  0.204
22. RRIRHRPPRLPRPRPRPRVFPRP  0.201
23. RRIRMRPPRLPRPRPRPMTAPRP  0.198
24. RRIRNRPPRLPRPRPRPTPNPRP  0.185
25. RRIRVRPPRLPRPRPRPSHWPRP  0.182
26. RRIRMRPPRLPRPRPRPHAFPRP  0.179
27. RRIRQRPPRLPRPRPRPTAVPRP  0.165
28. RRIRNRPPRLPRPRPRPPRWPRP  0.147
29. RRIRQRPPRLPRPRPRPEIVPRP  0.143
30. RRIRDRPPRLPRPRPRPKAGPRP  0.143
31. RRIRNRPPRLPRPRPRPQHWPRP  0.13
32. RRIRGRPPRLPRPRPRPYEYPRP  0.127
33. RRIRQRPPRLPRPRPRPGRPPRP  0.121
34. RRIRRRPPRLPRPRPRPICLPRP  0.12
35. RRIRWRPPRLPRPRPRPMQLPRP  0.12
36. RRIRPRPPRLPRPRPRPMDEPRP  0.119
37. RRIRFRPPRLPRPRPRPKWDPRP  0.117
38. RRIRERPPRLPRPRPRPMHTPRP  0.102
39. RRIRERPPRLPRPRPRPQLSPRP  0.1
40. RRIRNRPPRLPRPRPRPCMRPRP  0.0891
41. RRIRKRPPRLPRPRPRPHVAPRP  0.0884
42. RRIRQRPPRLPRPRPRPLRQPRP  0.0855
43. RRIRRRPPRLPRPRPRPFCMPRP  0.084
44. RRIRARPPRLPRPRPRPHSCPRP  0.0724
45. RRIRRRPPRLPRPRPRPWSCPRP  0.0681
46. RRIRPRPPRLPRPRPRPENPPRP  0.0677
47. RRIRNRPPRLPRPRPRPWDQPRP  0.0603
48. RRIRPRPPRLPRPRPRPLIWPRP  0.0601
49. RRIRLRPPRLPRPRPRPEYCPRP  0.0552
50. RRIRIRPPRLPRPRPRPPIEPRP  0.0545
51. RRIRFRPPRLPRPRPRPHYGPRP  0.0398
52. RRIRKRPPRLPRPRPRPGKYPRP  0.0356
53. RRIRTRPPRLPRPRPRPAKIPRP  0.0299
54. RRIRERPPRLPRPRPRPHCFPRP  0.0259
55. RRIRNRPPRLPRPRPRPTLKPRP  0.0241
56. RRIRMRPPRLPRPRPRPCSNPRP  0.0191
57. RRIRRRPPRLPRPRPRPNAGPRP  0.0188
58. RRIRKRPPRLPRPRPRPVSSPRP  0.00728
59. RRIRVRPPRLPRPRPRPMLMPRP  0.00342
60. RRIRDRPPRLPRPRPRPWWCPRP  -0.00632
61. RRIRTRPPRLPRPRPRPPEEPRP  -0.00968
62. RRIRQRPPRLPRPRPRPHAMPRP  -0.0121
63. RRIRKRPPRLPRPRPRPMSYPRP  -0.0167
64. RRIRSRPPRLPRPRPRPLDQPRP  -0.0226
65. RRIRIRPPRLPRPRPRPDSRPRP  -0.0316
66. RRIRWRPPRLPRPRPRPWCVPRP  -0.032
67. RRIRPRPPRLPRPRPRPFHRPRP  -0.0334
68. RRIRVRPPRLPRPRPRPHEGPRP  -0.0348
69. RRIRDRPPRLPRPRPRPAHCPRP  -0.0402
70. RRIRHRPPRLPRPRPRPYKFPRP  -0.0481
71. RRIRTRPPRLPRPRPRPTWYPRP  -0.0546
72. RRIRVRPPRLPRPRPRPCHYPRP  -0.0563
73. RRIRARPPRLPRPRPRPMHMPRP  -0.0568
74. RRIRPRPPRLPRPRPRPPFIPRP  -0.0606
75. RRIRLRPPRLPRPRPRPVTSPRP  -0.0743
76. RRIRKRPPRLPRPRPRPYKQPRP  -0.0754
77. RRIRIRPPRLPRPRPRPESCPRP  -0.0796
78. RRIRWRPPRLPRPRPRPYDWPRP  -0.0803
79. RRIRRRPPRLPRPRPRPYADPRP  -0.0932
80. RRIRTRPPRLPRPRPRPLEQPRP  -0.102
81. RRIRERPPRLPRPRPRPYHYPRP  -0.102
82. RRIRTRPPRLPRPRPRPFWNPRP  -0.104
83. RRIRERPPRLPRPRPRPGIVPRP  -0.113
84. RRIRYRPPRLPRPRPRPYHWPRP  -0.115
85. RRIRTRPPRLPRPRPRPVTTPRP  -0.116
86. RRIRSRPPRLPRPRPRPGYCPRP  -0.119
87. RRIRIRPPRLPRPRPRPIVAPRP  -0.119
88. RRIRYRPPRLPRPRPRPVKHPRP  -0.122
89. RRIRARPPRLPRPRPRPFSCPRP  -0.122
90. RRIRIRPPRLPRPRPRPTWLPRP  -0.124
91. RRIRQRPPRLPRPRPRPWGDPRP  -0.138
92. RRIRCRPPRLPRPRPRPVMPPRP  -0.139
93. RRIRLRPPRLPRPRPRPKFKPRP  -0.147
94. RRIRARPPRLPRPRPRPCSNPRP  -0.153
95. RRIRARPPRLPRPRPRPGKFPRP  -0.167
96. RRIRERPPRLPRPRPRPAVVPRP  -0.171
97. RRIRRRPPRLPRPRPRPGVHPRP  -0.178
98. RRIRTRPPRLPRPRPRPLIQPRP  -0.197
99. RRIRCRPPRLPRPRPRPFFMPRP  -0.201
100. RRIRCRPPRLPRPRPRPWCDPRP  -0.211
101. RRIRPRPPRLPRPRPRPQLTPRP  -0.221
102. RRIRWRPPRLPRPRPRPWFMPRP  -0.222
103. RRIRFRPPRLPRPRPRPKTIPRP  -0.223
104. RRIRVRPPRLPRPRPRPMISPRP  -0.237
105. RRIRQRPPRLPRPRPRPKQHPRP  -0.239
106. RRIRIRPPRLPRPRPRPHRVPRP  -0.24
107. RRIRTRPPRLPRPRPRPITWPRP  -0.252
108. RRIRHRPPRLPRPRPRPCMIPRP  -0.277
109. RRIRHRPPRLPRPRPRPANKPRP  -0.291
110. RRIRSRPPRLPRPRPRPHSRPRP  -0.322
111. RRIRWRPPRLPRPRPRPHNDPRP  -0.324
112. RRIRYRPPRLPRPRPRPVHLPRP  -0.328
113. RRIRFRPPRLPRPRPRPSIEPRP  -0.342
114. RRIRCRPPRLPRPRPRPPCNPRP  -0.355
115. RRIRIRPPRLPRPRPRPQKNPRP  -0.355
116. RRIRFRPPRLPRPRPRPTVIPRP  -0.371
117. RRIRARPPRLPRPRPRPHMPPRP  -0.419
118. RRIRIRPPRLPRPRPRPCFCPRP  -0.422
119. RRIRLRPPRLPRPRPRPQIMPRP  -0.444
120. RRIRERPPRLPRPRPRPRNFPRP  -0.456
121. RRIRLRPPRLPRPRPRPHHSPRP  -0.506
122. RRIRGRPPRLPRPRPRPYHPPRP  -0.559
123. RRIRHRPPRLPRPRPRPRYGPRP  -0.629
124. RRIRFRPPRLPRPRPRPCQMPRP  -0.981
125. RRIRIRPPRLPRPRPRPWYGPRP  -1.24
